In publication PMC11398462 (bioRxiv, 2024):

Target: the molecule itself
Assay: SEC

B1: Lipo-YcjN (recombinantly overexpressed lipidated YcjN, heterogeneously diacylated at cysteine 21) (natural protein, E. coli K-12, UniProt P76042 21-430, looked up)
chain: CKEENKTNVSIEFMHSSVEQERQAVISKLIARFEKENPGITVKQVPVEEDAYNTKVITLSRSGSLPEVIETSHDYAKVMDKEQLIDRKAVATVISNVGEGAFYDGVLRIVRTEDGSAWTGVPVSAWIGGIWYRKDVLAKAGLEEPKNWQQLLDVAQKLNDPANKKYGIALPTAESVLTEQSFSQFALSNQANVFNAEGKITLDTPEMMQALTYYRDLTANTMPGSNDIMEVKDAFMNGTAPMAIYSTYILPAVIKEGDPKNVGFVVPTEKNSAVYGMLTSLTITAGQKTEETEAAEKFVTFMEQADNIADWVMMSPGAALPVNKAVVTTATWKDNDVIKALGELPNQLIGELPNIQVFGAVGDKNFTRMGDVTGSGVVSSMVHNVTVGKADLSTTLQASQKKLDELIEQH
modifications: cysteine 21 diacylated, acyl chain compositions [16:0, 16:0] and [16:0, 18:1]
B1: binds.
